Reference: the supplement of paper PMC10724198
± gives the standard deviation of the averaged measurements.

How the values were obtained:
Saccharomyces cerevisiae [1] = test: protein stability index of tFT-peptide fusion (C-terminal peptide) (PSI (0-1 scale)); higher = more stable (slower turnover); conditions: genetic background: wild type; temperature: 30 C
Saccharomyces cerevisiae [2] = test: as above
Procedure: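 MPS profiling in S. cerevisiae of the tFT-X12 degron library: putative degron peptides plus stable controls, 12 aa, fused to the C-terminus of a sfGFP-mCherry timer. Cells are FACS-sorted into 8 mCherry/sfGFP bins and deep-sequenced. PSI runs from 0 (unstable) to 1 (stable). Backgrounds are wild type, das1Δ and doa10Δ at 30 °C, and wild type, das1Δ, cdc34-1 and cdc53-1 at 37 °C; 2-3 technical replicates each.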

[3] = genetic background: cdc34-1, temperature: 37 C
[4] = genetic background: cdc53-1, temperature: 37 C
[5] = genetic background: das1 deletion, temperature: 30 C
[6] = genetic background: das1 deletion, temperature: 37 C
[7] = genetic background: doa10 deletion, temperature: 30 C
[8] = genetic background: wild type, temperature: 30 C
[9] = genetic background: wild type, temperature: 37 C
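Also: PSI is a weighted mean of sequencing reads over stability bins, variants kept only with over 10 reads, mCherry proximal and sfGFP distal, peptide attached via GGGS linker.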

## RLVVSRNFYRLC
Saccharomyces cerevisiae [1]
  protein stability index: 0.304 ± 0.1
Saccharomyces cerevisiae [2]; [3]
  protein stability index: 0.622 ± 0.054
Saccharomyces cerevisiae [2]; [4]
  protein stability index: 0.723 ± 0.017
Saccharomyces cerevisiae [2]; [5]
  protein stability index: 0.6318 ± 0.006
Saccharomyces cerevisiae [2]; [6]
  protein stability index: 0.7235 ± 0.0012
Saccharomyces cerevisiae [2]; [7]
  protein stability index: 0.125 ± 0.0022
Saccharomyces cerevisiae [2]; [8]
  protein stability index: 0.135 ± 0.014
Saccharomyces cerevisiae [2]; [9]
  protein stability index: 0.342 ± 0.0091

## RLWLPLSLVLWV
Saccharomyces cerevisiae [1]
  protein stability index: 0.427 ± 0.029
Saccharomyces cerevisiae [2]; [3]
  protein stability index: 0.376 ± 0.05
Saccharomyces cerevisiae [2]; [4]
  protein stability index: 0.3824 ± 0.0031
Saccharomyces cerevisiae [2]; [5]
  protein stability index: 0.37 ± 0.072
Saccharomyces cerevisiae [2]; [6]
  protein stability index: 0.505 ± 0.012
Saccharomyces cerevisiae [2]; [7]
  protein stability index: 0.414 ± 0.03
Saccharomyces cerevisiae [2]; [8]
  protein stability index: 0.341 ± 0.05
Saccharomyces cerevisiae [2]; [9]
  protein stability index: 0.421 ± 0.041

## RMCEILGIRHLI
Saccharomyces cerevisiae [1]
  protein stability index: 0.245 ± 0.061
Saccharomyces cerevisiae [2]; [3]
  protein stability index: 0.611 ± 0.031
Saccharomyces cerevisiae [2]; [4]
  protein stability index: 0.742 ± 0.016
Saccharomyces cerevisiae [2]; [5]
  protein stability index: 0.645 ± 0.025
Saccharomyces cerevisiae [2]; [6]
  protein stability index: 0.748 ± 0.017
Saccharomyces cerevisiae [2]; [7]
  protein stability index: 0.137 ± 0.013
Saccharomyces cerevisiae [2]; [8]
  protein stability index: 0.158 ± 0.01
Saccharomyces cerevisiae [2]; [9]
  protein stability index: 0.303 ± 0.016

## RMCPWVSVRVGV
Saccharomyces cerevisiae [1]
  protein stability index: 0.485 ± 0.0071
Saccharomyces cerevisiae [2]; [3]
  protein stability index: 0.558 ± 0.028
Saccharomyces cerevisiae [2]; [4]
  protein stability index: 0.5891 ± 0.0027
Saccharomyces cerevisiae [2]; [5]
  protein stability index: 0.382 ± 0.036
Saccharomyces cerevisiae [2]; [6]
  protein stability index: 0.5922 ± 0.0023
Saccharomyces cerevisiae [2]; [7]
  protein stability index: 0.3537 ± 0.0019
Saccharomyces cerevisiae [2]; [8]
  protein stability index: 0.391 ± 0.013
Saccharomyces cerevisiae [2]; [9]
  protein stability index: 0.5825 ± 0.00065

## RPRRARLPNFLA
Saccharomyces cerevisiae [1]
  protein stability index: 0.0979 ± 0.012
Saccharomyces cerevisiae [2]; [3]
  protein stability index: 0.37 ± 0.0066
Saccharomyces cerevisiae [2]; [4]
  protein stability index: 0.64023 ± 0.0001
Saccharomyces cerevisiae [2]; [5]
  protein stability index: 0.653 ± 0.022
Saccharomyces cerevisiae [2]; [6]
  protein stability index: 0.705 ± 0.018
Saccharomyces cerevisiae [2]; [7]
  protein stability index: 0.0688 ± 0.021
Saccharomyces cerevisiae [2]; [8]
  protein stability index: 0.073 ± 0.0067
Saccharomyces cerevisiae [2]; [9]
  protein stability index: 0.0894 ± 0.0014

## RPRVAGLMTLVS
Saccharomyces cerevisiae [1]
  protein stability index: 0.5 ± 0.0055
Saccharomyces cerevisiae [2]; [3]
  protein stability index: 0.698 ± 0.013
Saccharomyces cerevisiae [2]; [4]
  protein stability index: 0.686 ± 0.052
Saccharomyces cerevisiae [2]; [5]
  protein stability index: 0.543 ± 0.018
Saccharomyces cerevisiae [2]; [6]
  protein stability index: 0.707 ± 0.025
Saccharomyces cerevisiae [2]; [7]
  protein stability index: 0.459 ± 0.03
Saccharomyces cerevisiae [2]; [8]
  protein stability index: 0.459 ± 0.032
Saccharomyces cerevisiae [2]; [9]
  protein stability index: 0.672 ± 0.0094

## RRSRLYKKAGLM
Saccharomyces cerevisiae [1]
  protein stability index: 0.301 ± 0.064
Saccharomyces cerevisiae [2]; [3]
  protein stability index: 0.609 ± 0.011
Saccharomyces cerevisiae [2]; [4]
  protein stability index: 0.7374 ± 0.0017
Saccharomyces cerevisiae [2]; [5]
  protein stability index: 0.643 ± 0.02
Saccharomyces cerevisiae [2]; [6]
  protein stability index: 0.745 ± 0.011
Saccharomyces cerevisiae [2]; [7]
  protein stability index: 0.179 ± 0.001
Saccharomyces cerevisiae [2]; [8]
  protein stability index: 0.181 ± 0.037
Saccharomyces cerevisiae [2]; [9]
  protein stability index: 0.296 ± 0.0014

## RSIVFRVSRRLN
Saccharomyces cerevisiae [1]
  protein stability index: 0.277 ± 0.034
Saccharomyces cerevisiae [2]; [3]
  protein stability index: 0.65 ± 0.074
Saccharomyces cerevisiae [2]; [4]
  protein stability index: 0.729 ± 0.019
Saccharomyces cerevisiae [2]; [5]
  protein stability index: 0.671 ± 0.023
Saccharomyces cerevisiae [2]; [6]
  protein stability index: 0.726 ± 0.015
Saccharomyces cerevisiae [2]; [7]
  protein stability index: 0.13 ± 0.0084
Saccharomyces cerevisiae [2]; [8]
  protein stability index: 0.161 ± 0.025
Saccharomyces cerevisiae [2]; [9]
  protein stability index: 0.343 ± 0.044

## RTKIKKKIMKNI
Saccharomyces cerevisiae [1]
  protein stability index: 0.515 ± 0.062
Saccharomyces cerevisiae [2]; [3]
  protein stability index: 0.621 ± 0.051
Saccharomyces cerevisiae [2]; [4]
  protein stability index: 0.718 ± 0.032
Saccharomyces cerevisiae [2]; [5]
  protein stability index: 0.667 ± 0.023
Saccharomyces cerevisiae [2]; [6]
  protein stability index: 0.716 ± 0.029
Saccharomyces cerevisiae [2]; [7]
  protein stability index: 0.473 ± 0.052
Saccharomyces cerevisiae [2]; [8]
  protein stability index: 0.532 ± 0.016
Saccharomyces cerevisiae [2]; [9]
  protein stability index: 0.651 ± 0.037

## RVCCLSFFFVFL
Saccharomyces cerevisiae [1]
  protein stability index: 0.517 ± 0.024
Saccharomyces cerevisiae [2]; [3]
  protein stability index: 0.445 ± 0.022
Saccharomyces cerevisiae [2]; [4]
  protein stability index: 0.581 ± 0.054
Saccharomyces cerevisiae [2]; [5]
  protein stability index: 0.398 ± 0.036
Saccharomyces cerevisiae [2]; [6]
  protein stability index: 0.581 ± 0.014
Saccharomyces cerevisiae [2]; [7]
  protein stability index: 0.427 ± 0.0094
Saccharomyces cerevisiae [2]; [8]
  protein stability index: 0.391 ± 0.0052
Saccharomyces cerevisiae [2]; [9]
  protein stability index: 0.551 ± 0.027

## RVCYQIAISLPI
Saccharomyces cerevisiae [1]
  protein stability index: 0.495 ± 0.016
Saccharomyces cerevisiae [2]; [3]
  protein stability index: 0.546 ± 0.0067
Saccharomyces cerevisiae [2]; [4]
  protein stability index: 0.571 ± 0.027
Saccharomyces cerevisiae [2]; [5]
  protein stability index: 0.438 ± 0.012
Saccharomyces cerevisiae [2]; [6]
  protein stability index: 0.552 ± 0.013
Saccharomyces cerevisiae [2]; [7]
  protein stability index: 0.428 ± 0.022
Saccharomyces cerevisiae [2]; [8]
  protein stability index: 0.432 ± 0.02
Saccharomyces cerevisiae [2]; [9]
  protein stability index: 0.542 ± 0.03

## RVDVSVLWNRRS
Saccharomyces cerevisiae [1]
  protein stability index: 0.4857 ± 0.0047
Saccharomyces cerevisiae [2]; [3]
  protein stability index: 0.655 ± 0.045
Saccharomyces cerevisiae [2]; [4]
  protein stability index: 0.75995 ± 0.0007
Saccharomyces cerevisiae [2]; [5]
  protein stability index: 0.669 ± 0.0086
Saccharomyces cerevisiae [2]; [6]
  protein stability index: 0.744 ± 0.028
Saccharomyces cerevisiae [2]; [7]
  protein stability index: 0.284 ± 0.026
Saccharomyces cerevisiae [2]; [8]
  protein stability index: 0.312 ± 0.038
Saccharomyces cerevisiae [2]; [9]
  protein stability index: 0.511 ± 0.013

## RVEPYDLARRVL
Saccharomyces cerevisiae [1]
  protein stability index: 0.726 ± 0.0081
Saccharomyces cerevisiae [2]; [3]
  protein stability index: 0.725 ± 0.038
Saccharomyces cerevisiae [2]; [4]
  protein stability index: 0.768 ± 0.028
Saccharomyces cerevisiae [2]; [5]
  protein stability index: 0.665 ± 0.027
Saccharomyces cerevisiae [2]; [6]
  protein stability index: 0.759 ± 0.02
Saccharomyces cerevisiae [2]; [7]
  protein stability index: 0.652 ± 0.025
Saccharomyces cerevisiae [2]; [8]
  protein stability index: 0.628 ± 0.015
Saccharomyces cerevisiae [2]; [9]
  protein stability index: 0.71 ± 0.018

## RVITRMLLMVIR
Saccharomyces cerevisiae [1]
  protein stability index: 0.43 ± 0.036
Saccharomyces cerevisiae [2]; [3]
  protein stability index: 0.318 ± 0.056
Saccharomyces cerevisiae [2]; [4]
  protein stability index: 0.365 ± 0.031
Saccharomyces cerevisiae [2]; [5]
  protein stability index: 0.353 ± 0.029
Saccharomyces cerevisiae [2]; [6]
  protein stability index: 0.512 ± 0.019
Saccharomyces cerevisiae [2]; [7]
  protein stability index: 0.493 ± 0.0081
Saccharomyces cerevisiae [2]; [8]
  protein stability index: 0.359 ± 0.011
Saccharomyces cerevisiae [2]; [9]
  protein stability index: 0.47449 ± 0.00047

## RVPCCLSFVPVC
Saccharomyces cerevisiae [1]
  protein stability index: 0.452 ± 0.033
Saccharomyces cerevisiae [2]; [3]
  protein stability index: 0.508 ± 0.032
Saccharomyces cerevisiae [2]; [4]
  protein stability index: 0.5131 ± 0.004
Saccharomyces cerevisiae [2]; [5]
  protein stability index: 0.394 ± 0.026
Saccharomyces cerevisiae [2]; [6]
  protein stability index: 0.5682 ± 0.0047
Saccharomyces cerevisiae [2]; [7]
  protein stability index: 0.363 ± 0.0097
Saccharomyces cerevisiae [2]; [8]
  protein stability index: 0.405 ± 0.027
Saccharomyces cerevisiae [2]; [9]
  protein stability index: 0.5362 ± 0.0037

## RVSECVSVVGWM
Saccharomyces cerevisiae [1]
  protein stability index: 0.562 ± 0.14
Saccharomyces cerevisiae [2]; [3]
  protein stability index: 0.678 ± 0.082
Saccharomyces cerevisiae [2]; [4]
  protein stability index: 0.723 ± 0.025
Saccharomyces cerevisiae [2]; [5]
  protein stability index: 0.624 ± 0.019
Saccharomyces cerevisiae [2]; [6]
  protein stability index: 0.737 ± 0.011
Saccharomyces cerevisiae [2]; [7]
  protein stability index: 0.619 ± 0.024
Saccharomyces cerevisiae [2]; [8]
  protein stability index: 0.633 ± 0.0064
Saccharomyces cerevisiae [2]; [9]
  protein stability index: 0.7147 ± 0.0044

## RVYLLGLFVRSG
Saccharomyces cerevisiae [1]
  protein stability index: 0.491 ± 0.0076
Saccharomyces cerevisiae [2]; [3]
  protein stability index: 0.552 ± 0.035
Saccharomyces cerevisiae [2]; [4]
  protein stability index: 0.61 ± 0.014
Saccharomyces cerevisiae [2]; [5]
  protein stability index: 0.409 ± 0.04
Saccharomyces cerevisiae [2]; [6]
  protein stability index: 0.632 ± 0.021
Saccharomyces cerevisiae [2]; [7]
  protein stability index: 0.325 ± 0.017
Saccharomyces cerevisiae [2]; [8]
  protein stability index: 0.371 ± 0.031
Saccharomyces cerevisiae [2]; [9]
  protein stability index: 0.574 ± 0.033

## RWCLELLWITSC
Saccharomyces cerevisiae [1]
  protein stability index: 0.162 ± 0.015
Saccharomyces cerevisiae [2]; [3]
  protein stability index: 0.325 ± 0.013
Saccharomyces cerevisiae [2]; [4]
  protein stability index: 0.451 ± 0.013
Saccharomyces cerevisiae [2]; [5]
  protein stability index: 0.355 ± 0.03
Saccharomyces cerevisiae [2]; [6]
  protein stability index: 0.5006 ± 0.005
Saccharomyces cerevisiae [2]; [7]
  protein stability index: 0.0892 ± 0.0011
Saccharomyces cerevisiae [2]; [8]
  protein stability index: 0.0824 ± 0.015
Saccharomyces cerevisiae [2]; [9]
  protein stability index: 0.0678 ± 0.011

## RWPLVIRSLIVF
Saccharomyces cerevisiae [1]
  protein stability index: 0.2944 ± 0.0027
Saccharomyces cerevisiae [2]; [3]
  protein stability index: 0.196 ± 0.0088
Saccharomyces cerevisiae [2]; [4]
  protein stability index: 0.226 ± 0.0098
Saccharomyces cerevisiae [2]; [5]
  protein stability index: 0.251 ± 0.026
Saccharomyces cerevisiae [2]; [6]
  protein stability index: 0.325 ± 0.019
Saccharomyces cerevisiae [2]; [7]
  protein stability index: 0.214 ± 0.00073
Saccharomyces cerevisiae [2]; [8]
  protein stability index: 0.22 ± 0.017
Saccharomyces cerevisiae [2]; [9]
  protein stability index: 0.233 ± 0.01

## RWRRWCVVLFVV
Saccharomyces cerevisiae [1]
  protein stability index: 0.117 ± 0.012
Saccharomyces cerevisiae [2]; [3]
  protein stability index: 0.197 ± 0.043
Saccharomyces cerevisiae [2]; [4]
  protein stability index: 0.307 ± 0.021
Saccharomyces cerevisiae [2]; [5]
  protein stability index: 0.301 ± 0.025
Saccharomyces cerevisiae [2]; [6]
  protein stability index: 0.456 ± 0.0067
Saccharomyces cerevisiae [2]; [7]
  protein stability index: 0.0648 ± 0.015
Saccharomyces cerevisiae [2]; [8]
  protein stability index: 0.0689 ± 0.013
Saccharomyces cerevisiae [2]; [9]
  protein stability index: 0.0816 ± 0.01
